According to patent publication US20210253718A1, “FRIZZLED5 PROTEIN-BINDING AGENTS” (Modmab Therapeutics Corporation, priority 2016, published 2021):

What was measured:
PATU8988S cells [1] = test: Effect of anti-FZD5 Fabs on proliferation of pancreatic cancer cell lines (percent growth inhibition); type: cell-based, human; conditions: Fab 2 μg/ml
ASPC-1 cells [2] = test: as above; type: cell-based, human; conditions: Fab 2 μg/ml
FZD10 CRD = biological target: T1, FZD10 CRD (Homo sapiens, UniProt Q9ULW2); test: Immunofluorescence of anti-FZD5 Fab binding to CHO cells overexpressing Frizzled CRD; design: key: −: no binding; +: very weak binder; ++: weak binder; +++: good binder; ++++: very good binder
T1 construct: 30-156; GPI anchor signal (C); expressed in transfected cells; host or cells: CHO cells, lentiviral pLenti-puro
T1 sequence (Q9ULW2 30-156): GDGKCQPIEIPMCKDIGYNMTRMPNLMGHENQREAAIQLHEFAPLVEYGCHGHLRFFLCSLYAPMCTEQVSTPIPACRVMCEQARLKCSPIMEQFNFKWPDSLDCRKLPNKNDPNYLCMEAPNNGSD
Summary of the method: (§1)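 CHO cell lines each displaying a myc-tagged Frizzled CRD on the plasma membrane via GPI anchor. Recombinant anti-FZD5 Fab binding detected by immunofluorescence and flow cytometry.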

FZD6 CRD = biological target: T2, FZD6 CRD (Homo sapiens, UniProt O60353); test: as above; design: key: −: no binding; +: very weak binder; ++: weak binder; +++: good binder; ++++: very good binder
T2 construct: S20-P146; GPI anchor signal (C); expressed in transfected cells; host or cells: CHO cells, lentiviral pLenti-puro
T2 sequence (O60353 20-146): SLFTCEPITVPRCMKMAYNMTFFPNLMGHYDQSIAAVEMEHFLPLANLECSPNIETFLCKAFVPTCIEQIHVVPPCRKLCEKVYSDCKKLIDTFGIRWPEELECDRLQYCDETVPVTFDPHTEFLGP
Summary of the method: as §1

FZD8 CRD = biological target: T3, FZD8 CRD (Homo sapiens, UniProt Q9H461); test: as above; design: key: −: no binding; +: very weak binder; ++: weak binder; +++: good binder; ++++: very good binder
T3 construct: K31-D155; GPI anchor signal (C); expressed in transfected cells; host or cells: CHO cells, lentiviral pLenti-puro
T3 sequence (Q9H461 31-155): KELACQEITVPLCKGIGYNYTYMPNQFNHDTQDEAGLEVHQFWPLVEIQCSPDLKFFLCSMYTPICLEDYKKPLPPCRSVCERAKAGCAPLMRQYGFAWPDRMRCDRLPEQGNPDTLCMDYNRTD
Summary of the method: as §1

FZD2 CRD = biological target: T4, FZD2 CRD (Homo sapiens, UniProt Q14332); test: as above; design: key: −: no binding; +: very weak binder; ++: weak binder; +++: good binder; ++++: very good binder
T4 construct: D35-P161; GPI anchor signal (C); expressed in transfected cells; host or cells: CHO cells, lentiviral pLenti-puro
Summary of the method: as §1

FZD9 CRD = biological target: T5, FZD9 CRD (Homo sapiens, UniProt O00144); test: as above; design: key: −: no binding; +: very weak binder; ++: weak binder; +++: good binder; ++++: very good binder
T5 construct: G35-A161; GPI anchor signal (C); expressed in transfected cells; host or cells: CHO cells, lentiviral pLenti-puro
T5 sequence (O00144 35-161): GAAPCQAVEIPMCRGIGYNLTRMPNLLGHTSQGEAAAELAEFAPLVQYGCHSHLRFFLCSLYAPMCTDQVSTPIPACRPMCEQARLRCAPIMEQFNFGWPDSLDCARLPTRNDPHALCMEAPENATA
Summary of the method: as §1

ASPC-1 cells [3] = test: Effect of anti-FZD5 Fabs on proliferation of pancreatic cancer cell lines (percent growth inhibition); type: cell-based, human; conditions: Fab 10 μg/ml
Procedure: (§2) The effect of presently disclosed anti-FZD5 Fabs on proliferation of RNF43 loss-of-function mutant pancreatic cancer cell lines HPAFII, PATU8988S and ASPC-1; and on pancreatic cancer cell line RWP1, was tested at […] and 10 μg/ml.

RWP1 cells [4] = test: as above; type: cell-based, human; conditions: Fab 10 μg/ml
Procedure: as §2

PATU8988S cells [5] = test: as above; type: cell-based, human; conditions: Fab 10 μg/ml
Procedure: as §2

HPAFII cells = test: as above; type: cell-based, human; conditions: for percent growth inhibition, HPAFII 2 μg/ml: Fab 2 μg/ml; for percent growth inhibition, HPAFII 10 μg/ml: Fab 10 μg/ml
Procedure: as §2

RWP1 cells [6] = test: as above; type: cell-based, human; conditions: Fab 2 μg/ml

B1: Fab-2934: anti-FZD5 Fab with antibody variable region Fv-2934; CDR SEQ ID NOs: 35, 36, 73, 110, 149, 155 (antibody, V domains shown)
VH: EVQLVESGGGLVQPGGSLRLSCAASGFNISYSYMHWVRQAPGKGLEWVASIYSSSGSTSYADSVKGRFTISADTSKNTAYLQMNSLRAEDTAVYYCARGAIDYWGQGTLVTVSS
VL: DIQMTQSPSSLSASVGDRVTITCRASQSVSSAVAWYQQKPGKAPKLLIYSASSLYSGVPSRFSGSRSGTDFTLTISSLQPEDFATYYCQQWYHYGLITFGQGTKVEIK
PATU8988S cells [1]
  percent growth inhibition, PATU8988s 2 μg/ml: −9.14%
ASPC-1 cells [2]
  percent growth inhibition, ASPC-1 2 μg/ml: 26.80%
FZD10 CRD
  Immunofluorescence binding, Frizzled CRD overexpressed on CHO cells: FZD10: −
FZD6 CRD
  Immunofluorescence binding, Frizzled CRD overexpressed on CHO cells: FZD6: −
FZD8 CRD
  Immunofluorescence binding, Frizzled CRD overexpressed on CHO cells: FZD8: +
FZD2 CRD
  Immunofluorescence binding, Frizzled CRD overexpressed on CHO cells: FZD2: −
FZD9 CRD
  Immunofluorescence binding, Frizzled CRD overexpressed on CHO cells: FZD9: −
ASPC-1 cells [3]
  percent growth inhibition, ASPC-1 10 μg/ml: 36.76%
RWP1 cells [4]
  percent growth inhibition, RWP1 10 μg/ml: 0.90%
PATU8988S cells [5]
  percent growth inhibition, PATU8988s 10 μg/ml: 1.78%
HPAFII cells
  percent growth inhibition, HPAFII 2 μg/ml: 3.40%
  percent growth inhibition, HPAFII 10 μg/ml: 20.44%
RWP1 cells [6]
  percent growth inhibition, RWP1 2 μg/ml: 7.90%

B2: Fab-2935: anti-FZD5 Fab with antibody variable region Fv-2935; CDR SEQ ID NOs: 35, 36, 74, 111, 150, 178 (antibody, V domains shown)
VH: EVQLVESGGGLVQPGGSLRLSCAASGFNIYYYYIHWVRQAPGKGLEWVASIYPSSGSTSYADSVKGRFTISADTSKNTAYLQMNSLRAEDTAVYYCARAAFDYWGQGTLVTVSS
VL: DIQMTQSPSSLSASVGDRVTITCRASQSVSSAVAWYQQKPGKAPKLLIYSASSLYSGVPSRFSGSRSGTDFTLTISSLQPEDFATYYCQQWYGGYALITFGQGTKVEIK
PATU8988S cells [1]
  percent growth inhibition, PATU8988s 2 μg/ml: 2.48%
ASPC-1 cells [2]
  percent growth inhibition, ASPC-1 2 μg/ml: 4.75%
FZD10 CRD
  Immunofluorescence binding, Frizzled CRD overexpressed on CHO cells: FZD10: −
FZD6 CRD
  Immunofluorescence binding, Frizzled CRD overexpressed on CHO cells: FZD6: −
FZD8 CRD
  Immunofluorescence binding, Frizzled CRD overexpressed on CHO cells: FZD8: +
FZD2 CRD
  Immunofluorescence binding, Frizzled CRD overexpressed on CHO cells: FZD2: −
FZD9 CRD
  Immunofluorescence binding, Frizzled CRD overexpressed on CHO cells: FZD9: −
ASPC-1 cells [3]
  percent growth inhibition, ASPC-1 10 μg/ml: 24.63%
RWP1 cells [4]
  percent growth inhibition, RWP1 10 μg/ml: 10.15%
PATU8988S cells [5]
  percent growth inhibition, PATU8988s 10 μg/ml: −22.12%
HPAFII cells
  percent growth inhibition, HPAFII 2 μg/ml: −9.18%
  percent growth inhibition, HPAFII 10 μg/ml: −10.62%
RWP1 cells [6]
  percent growth inhibition, RWP1 2 μg/ml: −14.51%

B3: Fab-2936: anti-FZD5 Fab with antibody variable region Fv-2936; CDR SEQ ID NOs: 35, 36, 75, 112, 151, 179 (antibody, V domains shown)
VH: EVQLVESGGGLVQPGGSLRLSCAASGFNISYYYMHWVRQAPGKGLEWVASIYSSSGSTSYADSVKGRFTISADTSKNTAYLQMNSLRAEDTAVYYCARAAMDYWGQGTLVTVSS
VL: DIQMTQSPSSLSASVGDRVTITCRASQSVSSAVAWYQQKPGKAPKLLIYSASSLYSGVPSRFSGSRSGTDFTLTISSLQPEDFATYYCQQWYAASLITFGQGTKVEIK
PATU8988S cells [1]
  percent growth inhibition, PATU8988s 2 μg/ml: −8.03%
ASPC-1 cells [2]
  percent growth inhibition, ASPC-1 2 μg/ml: 17.01%
FZD10 CRD
  Immunofluorescence binding, Frizzled CRD overexpressed on CHO cells: FZD10: −
FZD6 CRD
  Immunofluorescence binding, Frizzled CRD overexpressed on CHO cells: FZD6: −
FZD8 CRD
  Immunofluorescence binding, Frizzled CRD overexpressed on CHO cells: FZD8: +
FZD2 CRD
  Immunofluorescence binding, Frizzled CRD overexpressed on CHO cells: FZD2: −
FZD9 CRD
  Immunofluorescence binding, Frizzled CRD overexpressed on CHO cells: FZD9: −
ASPC-1 cells [3]
  percent growth inhibition, ASPC-1 10 μg/ml: 22.02%
RWP1 cells [4]
  percent growth inhibition, RWP1 10 μg/ml: −5.97%
PATU8988S cells [5]
  percent growth inhibition, PATU8988s 10 μg/ml: −23.52%
HPAFII cells
  percent growth inhibition, HPAFII 2 μg/ml: −0.56%
  percent growth inhibition, HPAFII 10 μg/ml: 12.21%
RWP1 cells [6]
  percent growth inhibition, RWP1 2 μg/ml: 0.02%

B4: Fab-2926: anti-FZD5 Fab with antibody variable region Fv-2926; CDR SEQ ID NOs: 35, 36, 65, 103, 141, 173 (antibody, V domains shown)
VH: EVQLVESGGGLVQPGGSLRLSCAASGFNIYSSYMHWVRQAPGKGLEWVASIYPSSSSTSYADSVKGRFTISADTSKNTAYLQMNSLRAEDTAVYYCARGGLDYWGQGTLVTVSS
VL: DIQMTQSPSSLSASVGDRVTITCRASQSVSSAVAWYQQKPGKAPKLLIYSASSLYSGVPSRFSGSRSGTDFTLTISSLQPEDFATYYCQQWYHGGSLFTFGQGTKVEIK
PATU8988S cells [1]
  percent growth inhibition, PATU8988s 2 μg/ml: −15.89%
ASPC-1 cells [2]
  percent growth inhibition, ASPC-1 2 μg/ml: 17.27%
FZD10 CRD
  Immunofluorescence binding, Frizzled CRD overexpressed on CHO cells: FZD10: −
FZD6 CRD
  Immunofluorescence binding, Frizzled CRD overexpressed on CHO cells: FZD6: −
FZD8 CRD
  Immunofluorescence binding, Frizzled CRD overexpressed on CHO cells: FZD8: +
FZD2 CRD
  Immunofluorescence binding, Frizzled CRD overexpressed on CHO cells: FZD2: −
FZD9 CRD
  Immunofluorescence binding, Frizzled CRD overexpressed on CHO cells: FZD9: −
ASPC-1 cells [3]
  percent growth inhibition, ASPC-1 10 μg/ml: 24.71%
RWP1 cells [4]
  percent growth inhibition, RWP1 10 μg/ml: 40.20%
PATU8988S cells [5]
  percent growth inhibition, PATU8988s 10 μg/ml: −36.54%
HPAFII cells
  percent growth inhibition, HPAFII 2 μg/ml: −6.88%
  percent growth inhibition, HPAFII 10 μg/ml: 4.88%
RWP1 cells [6]
  percent growth inhibition, RWP1 2 μg/ml: 37.95%

B5: Fab-2933: anti-FZD5 Fab with antibody variable region Fv-2933; CDR SEQ ID NOs: 35, 36, 72, 109, 148, 177 (antibody, V domains shown)
VH: EVQLVESGGGLVQPGGSLRLSCAASGFNLYSSYMHWVRQAPGKGLEWVASIYSSYGYTSYADSVKGRFTISADTSKNTAYLQMNSLRAEDTAVYYCARTVRGSKKPYFSGWAMDYWGQGTLVTVSS
VL: DIQMTQSPSSLSASVGDRVTITCRASQSVSSAVAWYQQKPGKAPKLLIYSASSLYSGVPSRFSGSRSGTDFTLTISSLQPEDFATYYCQQFWWYASWLFTFGQGTKVEIK
PATU8988S cells [1]
  percent growth inhibition, PATU8988s 2 μg/ml: 6.02%
ASPC-1 cells [2]
  percent growth inhibition, ASPC-1 2 μg/ml: −1.03%
FZD10 CRD
  Immunofluorescence binding, Frizzled CRD overexpressed on CHO cells: FZD10: −
FZD6 CRD
  Immunofluorescence binding, Frizzled CRD overexpressed on CHO cells: FZD6: −
FZD8 CRD
  Immunofluorescence binding, Frizzled CRD overexpressed on CHO cells: FZD8: +
FZD2 CRD
  Immunofluorescence binding, Frizzled CRD overexpressed on CHO cells: FZD2: −
FZD9 CRD
  Immunofluorescence binding, Frizzled CRD overexpressed on CHO cells: FZD9: −
ASPC-1 cells [3]
  percent growth inhibition, ASPC-1 10 μg/ml: 19.44%
RWP1 cells [4]
  percent growth inhibition, RWP1 10 μg/ml: 27.16%
PATU8988S cells [5]
  percent growth inhibition, PATU8988s 10 μg/ml: −17.17%
HPAFII cells
  percent growth inhibition, HPAFII 2 μg/ml: −14.19%
  percent growth inhibition, HPAFII 10 μg/ml: −6.12%
RWP1 cells [6]
  percent growth inhibition, RWP1 2 μg/ml: −21.16%
